In the RNAGym collection of RNA variant scans (doi:10.1093/nar/gkz1192) one finds self-cleavage data, which are given here for 34 variants.

B1: CPEB3 Ribozyme (parent)
chain: UAACAGGGGGCCACAGCAGAAGCGUUCACGUCGCAGCCCCUGUCAGAUUCUGGUGAAUCUGCGAAUUCUGCUGUAUAUCUC

The variants in this data set derive from B1. Put plainly: self-cleavage, relative activity (ratio to wild type); higher = more cleavage; in vitro, sequencing. Summed up:
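For each CPEB3 ribozyme variant, relative activity is its cleaved/total read fraction divided by the unmutated ribozyme's. Barcoded error-prone PCR libraries were transcribed by T7 RNA polymerase (5 hours, 37°C) and held in DNase I for 15 min before an EDTA stop, with cleavage occurring throughout. Template-switching reverse transcription and Illumina sequencing were used to read the RNAs. A 5-read minimum applied, and results are the mean of three batches.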
As to UAACAGGGGGCCACAGCAGAAGCGUUCACGUCGCAGCCCCUGUCAGAUUCUGGUGCAUCUGCGAAUUCUGCUGUAUACCUC [A56C U78C], the self-cleavage amounted to 0.49. For the variant UAACAGGGGGCCACAGCAGAAGCGUUCACGUCGCAGCCCCUGUCAGAUUCUGGUGGAUCUGCGAAUUCUGCUGUAUAUAUC [A56G C79A], the self-cleavage worked out at 1.18.

UAACAGGGGGCCACAGCAGAAGCGUUCACGUCGCAGCCCCUGUCAGAUUCUGGUGGAUCUGCGAAUUCUGCUGUAUAUGUC [A56G C79G]: the self-cleavage is 1.16.

Consider UAACAGGGGGCCACAGCAGAAGCGUUCACGUCGCAGCCCCUGUCAGAUUCUGGUGCAUCCGCGAAUUCUGCUGUAUAUCUC [A56C U60C], for which the self-cleavage amounted to 0.18. For UAACAGGGGGCCACAGCAGAAGCGUUCACGUCGCAGCCCCUGUCAGAUUCUGGUGGAUCUGCGAAUUCUGUUGUAUAUCUC [A56G C71U], the self-cleavage came to 0.51. Turning to UAACAGGGGGCCACAGCAGAAGCGUUCACGUCGCAGCCCCUGUCAGAUUCUGGUUAAUCAGCGAAUUCUGCUGUAUAUCUC [G55U U60A], the self-cleavage amounted to 0.27. With UAACAGGGGGCCACAGCAGAAGCGUUCACGUCGCAGCCCCUGUCAGAUUCUGGUUAAUCCGCGAAUUCUGCUGUAUAUCUC [G55U U60C], the self-cleavage was found to be 0.27. As for UAACAGGGGGCCACAGCAGAAGCGUUCACGUCGCAGCCCCUGUCAGAUUCUGGUGGAUCUGCGAAUUCUGCUCUAUAUCUC [A56G G73C], the figure is 1.26; as for UAACAGGGGGCCACAGCAGAAGCGUUCACGUCGCAGCCCCUGUCAGAUUCUGGUGGAUCUGCGAAUUCUGCUUUAUAUCUC [A56G G73U], 1.15. On to UAACAGGGGGCCACAGCAGAAGCGUUCACGUCGCAGCCCCUGUCAGAUUCUGGUGGAUCUGCGAAUUUUGCUGUAUAUCUC [A56G C68U], for which the self-cleavage came out at 0.77.

As to UAACAGGGGGCCACAGCAGAAGCGUUCACGUCGCAGCCCCUGUCAGAUUCUGGUGGAUCUGCGAAUUAUGCUGUAUAUCUC [A56G C68A], the self-cleavage is 0.32. As for UAACAGGGGGCCACAGCAGAAGCGUUCACGUCGCAGCCCCUGUCAGAUUCUGGUGCAUCUGCGAAUUCUGCUGUAAAUCUC [A56C U76A], the figure is 0.71; as for UAACAGGGGGCCACAGCAGAAGCGUUCACGUCGCAGCCCCUGUCAGAUUCUGGUGCAUCUGCGAAUUCUGCUGUGUAUCUC [A56C A75G], 0.29; as for UAACAGGGGGCCACAGCAGAAGCGUUCACGUCGCAGCCCCUGUCAGAUUCUGGUUAAUCUGCGAAUCCUGCUGUAUAUCUC [G55U U67C], 0.21. Take UAACAGGGGGCCACAGCAGAAGCGUUCACGUCGCAGCCCCUGUCAGAUUCUGGUGGAUCUGCGAAUUCUGCUGUGUAUCUC [A56G A75G]: the self-cleavage is 0.64. For the variant UAACAGGGGGCCACAGCAGAAGCGUUCACGUCGCAGCCCCUGUCAGAUUCUGGUGGAUCUGCGAAUUCUGCUGUUUAUCUC [A56G A75U], the self-cleavage stood at 0.95.

With UAACAGGGGGCCACAGCAGAAGCGUUCACGUCGCAGCCCCUGUCAGAUUCUGGUGGAUCUGCGAAUUCUGCUGUCUAUCUC [A56G A75C], the self-cleavage stood at 1.12. Turning to UAACAGGGGGCCACAGCAGAAGCGUUCACGUCGCAGCCCCUGUCAGAUUCUGGUGGAUCUGCGAAUUCUGCUGUAUCUCUC [A56G A77C], the self-cleavage was 0.79. Regarding UAACAGGGGGCCACAGCAGAAGCGUUCACGUCGCAGCCCCUGUCAGAUUCUGGUGGAUCUGCGAAUUCUGCUGUAUUUCUC [A56G A77U], the self-cleavage is 0.99. Under UAACAGGGGGCCACAGCAGAAGCGUUCACGUCGCAGCCCCUGUCAGAUUCUGGUGGAUCUGCGAAUUCUGCUGUAUGUCUC [A56G A77G] stands 0.77; under UAACAGGGGGCCACAGCAGAAGCGUUCACGUCGCAGCCCCUGUCAGAUUCUGGUUAAUCUACGAAUUCUGCUGUAUAUCUC [G55U G61A], 0.6; under UAACAGGGGGCCACAGCAGAAGCGUUCACGUCGCAGCCCCUGUCAGAUUCUGGUGCAUCUGAGAAUUCUGCUGUAUAUCUC [A56C C62A], 0.24. For UAACAGGGGGCCACAGCAGAAGCGUUCACGUCGCAGCCCCUGUCAGAUUCUGGUUAAUCUGCGAAUUCUGCUGUAUAUCAC [G55U U80A], the self-cleavage is 1.11. In the case of UAACAGGGGGCCACAGCAGAAGCGUUCACGUCGCAGCCCCUGUCAGAUUCUGGUUAAUCUGCGAAUUCUGCUGUAUAUCCC [G55U U80C], the self-cleavage is 1.06. Turning to UAACAGGGGGCCACAGCAGAAGCGUUCACGUCGCAGCCCCUGUCAGAUUCUGGUUAAACUGCGAAUUCUGCUGUAUAUCUC [G55U U58A], the self-cleavage is 0.25. In the case of UAACAGGGGGCCACAGCAGAAGCGUUCACGUCGCAGCCCCUGUCAGAUUCUGGUGGAUCUGCGGAUUCUGCUGUAUAUCUC [A56G A64G], the self-cleavage was determined as 0.8.

On to UAACAGGGGGCCACAGCAGAAGCGUUCACGUCGCAGCCCCUGUCAGAUUCUGGUGGAUCUGCGCAUUCUGCUGUAUAUCUC [A56G A64C], for which the self-cleavage is 0.46. As to UAACAGGGGGCCACAGCAGAAGCGUUCACGUCGCAGCCCCUGUCAGAUUCUGGUGGAUCUGCGUAUUCUGCUGUAUAUCUC [A56G A64U], the self-cleavage stood at 0.3. As for UAACAGGGGGCCACAGCAGAAGCGUUCACGUCGCAGCCCCUGUCAGAUUCUGGUGGAUCUGCGAAUUCUGCUGUAUAUCUU [A56G C81U], the figure is 1.13.

Turning to UAACAGGGGGCCACAGCAGAAGCGUUCACGUCGCAGCCCCUGUCAGAUUCUGGUGGAUCUGCGAAUUCUGCUGUAUAUCUA [A56G C81A], the self-cleavage stood at 0.96. Regarding UAACAGGGGGCCACAGCAGAAGCGUUCACGUCGCAGCCCCUGUCAGAUUCUGGUGGAUCUGCGAAUUCUGCUGUAUAUCUG [A56G C81G], the self-cleavage came to 1.22. With UAACAGGGGGCCACAGCAGAAGCGUUCACGUCGCAGCCCCUGUCAGAUUCUGGUGGUUCUGCGAAUUCUGCUGUAUAUCUC [A56G A57U], the self-cleavage is 0.37. Consider UAACAGGGGGCCACAGCAGAAGCGUUCACGUCGCAGCCCCUGUCAGAUUCUGGUGGCUCUGCGAAUUCUGCUGUAUAUCUC [A56G A57C], for which the self-cleavage is 0.19. As for UAACAGGGGGCCACAGCAGAAGCGUUCACGUCGCAGCCCCUGUCAGAUUCUGGUGGGUCUGCGAAUUCUGCUGUAUAUCUC [A56G A57G], the figure is 0.42.
